We go through twelve molecules from patent US20230235012A1 (ALPINE IMMUNE SCIENCES, published 2023).

Where a chain is given by its changes, count along the chain named. Names may count otherwise.

To fix the notation:
T1: human ICOS (human, UniProt Q9Y6W8 21-199)
T1 construct: whole, on cells
T1 sequence (looked up): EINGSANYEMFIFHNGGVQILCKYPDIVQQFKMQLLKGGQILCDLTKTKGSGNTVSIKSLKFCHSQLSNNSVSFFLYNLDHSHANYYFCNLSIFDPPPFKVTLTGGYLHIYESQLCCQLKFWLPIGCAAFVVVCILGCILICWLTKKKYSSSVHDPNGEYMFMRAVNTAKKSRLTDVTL

T2: human ICOS, full-length, expressed on transfected Expi293 cells (human, UniProt Q9Y6W8 21-199)
T2 construct: whole, on cells
T2 sequence (looked up): T1 sequence (looked up)

B1: ICOSL ECD Truncation #7 with N52H/N57Y/Q100R/C198R and E90K/E111G, Fc fusion (Fc fusion)
chain: DTQEKEVRAMVGSDVELSCACPEGSRFDLNDVYVYWQTSESKTVVTYHIPQHSSLEYVDSRYRNRALMSPAGMLRGDFSLRLFNVTPQDKQKFHCLVLSRSLGFQEVLSVGVTLHVAANFSVPVVSAPHSPSQDELTFTCTSINGYPRPNVYWINKTDNSLLDQALQNDTVFLNMRGLYDVVSVLRIARTPSVNIGCRIENGGGGSGGGGSEPKSSDKTHTCPPCPAPEAEGAPSVFLFPPKPKDTLMISRTPEVTCVVVDVSHEDPEVKFNWYVDGVEVHNAKTKPREEQYNSTYRVVSVLTVLHQDWLNGKEYKCKVSNKALPAPIEKTISKAKGQPREPQVYTLPPSREEMTKNQVSLTCLVKGFYPSDIAVEWESNGQPENNYKTTPPVLDSDGSFFLYSKLTVDKSRWQQGNVFSCSVMHEALHNHYTQKSLSLSPG
notes: not restated for the C198R set
B2: ICOSL ECD Truncation #7 with N52H/N57Y/Q100R/F172S and F83S, Fc fusion (Fc fusion)
chain: B1 chain with F83S, K90E, G111E, F172S, R198C
B3: ICOSL ECD Truncation #6 with N52H/N57Y/Q100R/F172S, Fc fusion (Fc fusion)
chain: DTQEKEVRAMVGSDVELSCACPEGSRFDLNDVYVYWQTSESKTVVTYHIPQHSSLEYVDSRYRNRALMSPAGMLRGDFSLRLFNVTPQDEQKFHCLVLSRSLGFQEVLSVEVTLHVAANFSVPVVSAPHSPSQDELTFTCTSINGYPRPNVYWINKTDNSLLDQALQNDTVSLNMRGLYDVVSVLRIARTPSVNIGCCIENVLLGGGGSGGGGSEPKSSDKTHTCPPCPAPEAEGAPSVFLFPPKPKDTLMISRTPEVTCVVVDVSHEDPEVKFNWYVDGVEVHNAKTKPREEQYNSTYRVVSVLTVLHQDWLNGKEYKCKVSNKALPAPIEKTISKAKGQPREPQVYTLPPSREEMTKNQVSLTCLVKGFYPSDIAVEWESNGQPENNYKTTPPVLDSDGSFFLYSKLTVDKSRWQQGNVFSCSVMHEALHNHYTQKSLSLSPG
B4: ICOSL ECD Truncation #6 with N52H/N57Y/Q100R/C198R, Fc fusion (Fc fusion)
chain: B3 chain with S172F, C198R
notes: as for B1
B5: ICOSL IgV with N52H/N57Y/Q100R and H48R/S54P, Fc fusion (Fc fusion)
chain: DTQEKEVRAMVGSDVELSCACPEGSRFDLNDVYVYWQTSESKTVVTYRIPQHSPLEYVDSRYRNRALMSPAGMLRGDFSLRLFNVTPQDEQKFHCLVLSRSLGFQEVLSVEVTLHVAANFSVGGGGSGGGGSEPKSSDKTHTCPPCPAPEAEGAPSVFLFPPKPKDTLMISRTPEVTCVVVDVSHEDPEVKFNWYVDGVEVHNAKTKPREEQYNSTYRVVSVLTVLHQDWLNGKEYKCKVSNKALPAPIEKTISKAKGQPREPQVYTLPPSREEMTKNQVSLTCLVKGFYPSDIAVEWESNGQPENNYKTTPPVLDSDGSFFLYSKLTVDKSRWQQGNVFSCSVMHEALHNHYTQKSLSLSPG
B6: ICOSL ECD with N52H/N57Y/Q100R/C198R, Fc fusion (Table 30C) (Fc fusion)
chain: DTQEKEVRAMVGSDVELSCACPEGSRFDLNDVYVYWQTSESKTVVTYHIPQHSSLEYVDSRYRNRALMSPAGMLRGDFSLRLFNVTPQDEQKFHCLVLSRSLGFQEVLSVEVTLHVAANFSVPVVSAPHSPSQDELTFTCTSINGYPRPNVYWINKTDNSLLDQALQNDTVFLNMRGLYDVVSVLRIARTPSVNIGCRIENVLLQQNLTVGSQTGNDIGERDKITENPVSTGEKNAATGGGGSGGGGSEPKSSDKTHTCPPCPAPEAEGAPSVFLFPPKPKDTLMISRTPEVTCVVVDVSHEDPEVKFNWYVDGVEVHNAKTKPREEQYNSTYRVVSVLTVLHQDWLNGKEYKCKVSNKALPAPIEKTISKAKGQPREPQVYTLPPSREEMTKNQVSLTCLVKGFYPSDIAVEWESNGQPENNYKTTPPVLDSDGSFFLYSKLTVDKSRWQQGNVFSCSVMHEALHNHYTQKSLSLSPG
notes: as for B1
B7: ICOSL ECD Truncation #8 with N207G/L208G and N52H/N57Y/Q100R/F172S, Fc fusion (Fc fusion)
chain: DTQEKEVRAMVGSDVELSCACPEGSRFDLNDVYVYWQTSESKTVVTYHIPQHSSLEYVDSRYRNRALMSPAGMLRGDFSLRLFNVTPQDEQKFHCLVLSRSLGFQEVLSVEVTLHVAANFSVPVVSAPHSPSQDELTFTCTSINGYPRPNVYWINKTDNSLLDQALQNDTVSLNMRGLYDVVSVLRIARTPSVNIGCCIENVLLQQGGTGGGGSGGGGSEPKSSDKTHTCPPCPAPEAEGAPSVFLFPPKPKDTLMISRTPEVTCVVVDVSHEDPEVKFNWYVDGVEVHNAKTKPREEQYNSTYRVVSVLTVLHQDWLNGKEYKCKVSNKALPAPIEKTISKAKGQPREPQVYTLPPSREEMTKNQVSLTCLVKGFYPSDIAVEWESNGQPENNYKTTPPVLDSDGSFFLYSKLTVDKSRWQQGNVFSCSVMHEALHNHYTQKSLSLSPG
B8: ICOSL ECD Truncation #4 with N52H/N57Y/Q100R/F172S and E200G, Fc fusion (Fc fusion)
chain: DTQEKEVRAMVGSDVELSCACPEGSRFDLNDVYVYWQTSESKTVVTYHIPQHSSLEYVDSRYRNRALMSPAGMLRGDFSLRLFNVTPQDEQKFHCLVLSRSLGFQEVLSVEVTLHVAANFSVPVVSAPHSPSQDELTFTCTSINGYPRPNVYWINKTDNSLLDQALQNDTVSLNMRGLYDVVSVLRIARTPSVNIGCCIGNVLLQQNGGGGSGGGGSEPKSSDKTHTCPPCPAPEAEGAPSVFLFPPKPKDTLMISRTPEVTCVVVDVSHEDPEVKFNWYVDGVEVHNAKTKPREEQYNSTYRVVSVLTVLHQDWLNGKEYKCKVSNKALPAPIEKTISKAKGQPREPQVYTLPPSREEMTKNQVSLTCLVKGFYPSDIAVEWESNGQPENNYKTTPPVLDSDGSFFLYSKLTVDKSRWQQGNVFSCSVMHEALHNHYTQKSLSLSPG
B9: variant ICOSL IgV-Fc fusion N52V/N57T/Q100L (Fc fusion)
chain: DTQEKEVRAMVGSDVELSCACPEGSRFDLNDVYVYWQTSESKTVVTYHIPQVSSLETVDSRYRNRALMSPAGMLRGDFSLRLFNVTPQDEQKFHCLVLSLSLGFQEVLSVEVTLHVAANFSVGSGGGGSEPKSSDKTHTCPPCPAPEAEGAPSVFLFPPKPKDTLMISRTPEVTCVVVDVSHEDPEVKFNWYVDGVEVHNAKTKPREEQYNSTYRVVSVLTVLHQDWLNGKEYKCKVSNKALPAPIEKTISKAKGQPREPQVYTLPPSREEMTKNQVSLTCLVKGFYPSDIAVEWESNGQPENNYKTTPPVLDSDGSFFLYSKLTVDKSRWQQGNVFSCSVMHEALHNHYTQKSLSLSPG
B10: variant ICOSL IgV-Fc fusion N57Q/Q100P (Fc fusion)
chain: B9 chain with V52N, T57Q, L100P
B11: variant ICOSL ECD-Fc fusion, full length N52H/N57Y/Q100R/F172S (Fc fusion, not shown: a dimerising Fc or GST)
chain: DTQEKEVRAMVGSDVELSCACPEGSRFDLNDVYVYWQTSESKTVVTYHIPQHSSLEYVDSRYRNRALMSPAGMLRGDFSLRLFNVTPQDEQKFHCLVLSRSLGFQEVLSVEVTLHVAANFSVPVVSAPHSPSQDELTFTCTSINGYPRPNVYWINKTDNSLLDQALQNDTVSLNMRGLYDVVSVLRIARTPSVNIGCCIENVLLQQNLTVGSQTGNDIGERDKITENPVSTGEKNAAT
B12: variant ICOSL IgV-Fc fusion N52H/N57Y/Q100R (Fc fusion, not shown: a dimerising Fc or GST)
chain: DTQEKEVRAMVGSDVELSCACPEGSRFDLNDVYVYWQTSESKTVVTYHIPQHSSLEYVDSRYRNRALMSPAGMLRGDFSLRLFNVTPQDEQKFHCLVLSRSLGFQEVLSVEVTLHVAANFSV

T4 sequence (P16410 36-223): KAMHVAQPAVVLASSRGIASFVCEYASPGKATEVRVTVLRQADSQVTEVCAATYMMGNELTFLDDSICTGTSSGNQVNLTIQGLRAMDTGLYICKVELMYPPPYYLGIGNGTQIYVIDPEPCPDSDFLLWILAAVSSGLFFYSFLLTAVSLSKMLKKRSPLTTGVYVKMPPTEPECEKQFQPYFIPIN

One assay deals with T3, human CD28 (human, UniProt P10747 19-220).
T3 construct: whole, on cells
Kind of assay: flow cytometry, transfected cells; protein from CHO. For orientation: In flow cytometry, cells or beads pass a laser one at a time.
Turning to B1, the MFI came out at 38900 MFI and the “MFI ratio to WT” value was 22.5 fold.

As for B2, the MFI was determined as 88300 MFI and the “MFI ratio to WT” value is 51.1 fold.

For the molecule B3, the MFI is 91300 MFI and the “MFI ratio to WT” value stood at 52.8 fold.

In the case of B4, the MFI came out at 84600 MFI and the “MFI ratio to WT” value amounted to 49 fold.

On to B5, for which the MFI came out at 75300 MFI and the “MFI ratio to WT” value came to 43.6 fold.

Turning to B6, the MFI was 59200 MFI and the “MFI ratio to WT” value is 34.3 fold.

As to B7, the MFI stood at 108000 MFI and the “MFI ratio to WT” value was 62.4 fold.

For the molecule B8, the MFI was determined as 80600 MFI and the “MFI ratio to WT” value came to 46.6 fold.

The target of a further assay is T1, human ICOS. The assay is described as above.
Turning to B1, the MFI was 54600 MFI and the “MFI ratio to WT” value was 0.5 fold.

For the molecule B2, the MFI was 106000 MFI and the “MFI ratio to WT” value stood at 1.1 fold.

As to B3, the MFI was determined as 90100 MFI and the “MFI ratio to WT” value was 0.9 fold.

On to B4, for which the MFI came to 91400 MFI and the “MFI ratio to WT” value stood at 0.9 fold.

Turning to B5, the MFI is 143000 MFI and the “MFI ratio to WT” value is 1.4 fold.

For B6, the MFI came to 139000 MFI and the “MFI ratio to WT” value stood at 1.4 fold.

On to B7, for which the MFI worked out at 133000 MFI and the “MFI ratio to WT” value came out at 1.3 fold.

As to B8, the MFI stood at 108000 MFI and the “MFI ratio to WT” value was 1.1 fold.

A further assay has as its target T4, human CTLA-4 (human, UniProt P16410 36-223).
T4 construct: whole, on cells
The description is as above.
In the case of B1, the MFI is 83700 MFI and the “MFI ratio to WT” value came to 11 fold.

With B2, the MFI was 207000 MFI and the “MFI ratio to WT” value was found to be 27.3 fold.

For B3, the MFI amounted to 240000 MFI and the “MFI ratio to WT” value came out at 31.6 fold.

Consider B4, for which the MFI came to 236000 MFI and the “MFI ratio to WT” value is 31.1 fold.

Take B5: the MFI is 322000 MFI and the “MFI ratio to WT” value worked out at 42.4 fold.

On to B6, for which the MFI was found to be 133000 MFI and the “MFI ratio to WT” value worked out at 17.5 fold.

Take B7: the MFI amounted to 308000 MFI and the “MFI ratio to WT” value stood at 40.7 fold.

As for B8, the MFI was determined as 320000 MFI and the “MFI ratio to WT” value stood at 42.3 fold.

The next assay addresses T5, human CD28, full-length, expressed on transfected Expi293 cells (human, UniProt P10747 19-220).
T5 construct: whole, on cells
Briefly: flow cytometry, 100 nM, Expi293 cells with human CD28.
Take B9: the MFI worked out at 6200 MFI and the “MFI ratio to WT (ΔWT)” value was determined as 0.3 fold.

Turning to B10, the MFI turned out to be 15200 MFI and the “MFI ratio to WT (ΔWT)” value came to 0.7 fold.

With B11, the MFI worked out at 138000 MFI and the “MFI ratio to WT (ΔWT)” value came to 6.2 fold.

Take B12: the MFI was found to be 142000 MFI and the “MFI ratio to WT (ΔWT)” value worked out at 6.4 fold.

A further assay has as its target T2, human ICOS, full-length, expressed on …. Kind of assay: flow cytometry, 100 nM, Expi293 cells with human ICOS.
In the case of B9, the MFI is 29200 MFI and the “MFI ratio to WT (ΔWT)” value turned out to be 0.14 fold.

As for B10, the MFI stood at 205000 MFI and the “MFI ratio to WT (ΔWT)” value is 0.97 fold.

Turning to B11, the MFI was determined as 238000 MFI and the “MFI ratio to WT (ΔWT)” value amounted to 1.12 fold.

As to B12, the MFI turned out to be 200000 MFI and the “MFI ratio to WT (ΔWT)” value came out at 0.94 fold.

For the next assay, the target named is T6, human CTLA-4, full-length, expressed on transfected Expi293 cells (human, UniProt P16410 36-223).
T6 construct: whole, on cells
T6 sequence (P16410 36-223): as above
Kind of assay: flow cytometry, 100 nM, Expi293 cells with human CTLA-4.
On to B9, for which the MFI came out at 11500 MFI and the “MFI ratio to WT (ΔWT)” value was 0.03 fold.

With B10, the MFI came to 69100 MFI and the “MFI ratio to WT (ΔWT)” value was 0.21 fold.

B11: the MFI was 606000 MFI and the “MFI ratio to WT (ΔWT)” value turned out to be 1.83 fold.

Regarding B12, the MFI was 817000 MFI and the “MFI ratio to WT (ΔWT)” value came to 2.47 fold.
